The values below come from patent US5688671A, “Mutant aspartokinase gene” (Ajinomoto Co., Inc., priority 1993, dated 1997).

Data set [1] concerns AK. The data set can be described thus: AK enzyme activity and inhibition by lysine/threonine in cell-free extracts of AK-deficient Escherichia coli Gif106M1 transformants. It counts as biochemical, Corynebacterium glutamicum. The note with it: for Specific activity: Table 4; for 5 mM Lys + Thr (degree of desensitization of inhibition, activity-holding ratio): lysine 5 mM+threonine 5 mM; for 5 mM Lys + Thr (degree of desensitization of inhibition, activity-holding ratio) / 5 mM Lys (degree of desensitization of inhibition, activity-holding ratio) / 5 mM Thr (degree of desensitization of inhibition, activity-holding ratio): activity without addition = 100%, E. coli Gif106M1 extracts; for 5 mM Lys (degree of desensitization of inhibition, activity-holding ratio): lysine 5 mM; for 5 mM Thr (degree of desensitization of inhibition, activity-holding ratio): threonine 5 mM. The source says:
Bacteriol. 112, 84-92 (1972), Theze, J. et al., J. […] It is known that most of genes of bacteria belonging to the genus Corynebacterium are expressed in Escherichia coli. In addition, the AK gene was ligated at a position downstream from lac promoter on pHSG399. Thus it was postulated that the gene could be expressed in Escherichia coli. […] Thus it was confirmed that AK from the bacteria belonging to the genus Corynebacterium was expressed and operated in cells of Escherichia coli. Subsequently, cell-free extracts were prepared from bacterial cells, and the enzyme activity of AK was measured. Upon measurement of the enzyme activity of AK, various concentrations of lysine and threonine were added to enzyme reaction solutions to investigate the degree of inhibition (FIG. 2). […] (Ki value: 0.4 mM→5.0 mM). […] Cell-free extracts were prepared, and enzymes were analyzed.

For data set [2], the system named is aspartokinase. Briefly: Aspartokinase (AK) activity of cell-disrupted solutions of Corynebacterium glutamicum strains, with and without L-lysine/L-threonine. The class given is biochemical, Corynebacterium glutamicum (Brevibacterium lactofermentum). As to conditions: for 2 mM Lys + Thr (desensitization degree of inhibition): 2 mM lysine + threonine; for 2 mM Lys + Thr (desensitization degree of inhibition) / 5 mM Lys (desensitization degree of inhibition) / Specific activity / 5 mM Thr (desensitization degree of inhibition): plasmids introduced into AJ12036; for 5 mM Lys (desensitization degree of inhibition): lysine 5 mM; for Specific activity: Table 5; for 5 mM Thr (desensitization degree of inhibition): threonine 5 mM. The text has this: When a wild type strain is used as a donor for the DNA fragment containing the AK gene, a DNA fragment containing a wild type AK gene can be obtained. The DNA fragment containing the gene for AK in which synergistic feedback inhibition by L-lysine and L-threonine is substantially desensitized can be obtained by using a mutant strain in which synergistic feedback inhibition on the AK activity by L-lysine and L-threonine is substantially desensitized. The mutant strain can be obtained, for example, from a group of cells subjected to an ordinary mutation treatment, ultraviolet light irradiation, or a treatment with a mutating agent such as N-methyl-N'-nitro-N-nitrosoguanidine (NTG). The AK activity can be measured by using a method described in Miyajima, R. et al., The Journal of Biochemistry (1968), 63(2), 139-148.
Strains were prepared by introducing the wild type AK plasmid p399AKYB and the mutant AK plasmid p399AK9B respectively into AJ12036 strain (FERM P-7559) as a wild type strain of Corynebacterium glutamicum (Brevibacterium lactofermentum). The genes were introduced into Corynebacterium by means of an electric pulse method. The aspartokinase activity was measured for Corynebacterium glutamicum (Brevibacterium lactofermentum) AJ12036 strain as a host, AJ12690 strain harboring the wild type AK plasmid, and AJ12691 (FERM P12918) strain harboring the mutant AK plasmid. The activity was measured in accordance with an ordinary method (see Miyajima, R. et al., The Journal of Biochemistry (1968) 63(2), 139-148). […]
Strains were prepared by introducing 8 kinds of the plasmids shown in Table 3 into AJ12036 strain (FERM P-7559) as a wild type strain of Corynebacterium glutamicum (Brevibacterium lactofermentum) in the same manner as Example 3. The AK activity was measured for each of the strains. […] The desensitization degree of inhibition by lysine and/or threonine was similar to those in Example 6.

For data set [3], the system named is Corynebacterium glutamicum (Brevibacterium lactofermentum) AJ12036. Briefly: L-lysine productivity evaluated by cultivation in production medium. The class given is cell-based. The note with it: plasmids introduced into AJ12036; cultivation as in Example 3. The protocol: The lysine productivity was evaluated by cultivation for the wild type strain AJ12036, the wild type AK plasmid-harboring strain AJ12690, and the mutant AK plasmid-harboring strain AJ12691 (FERM P-12918). The evaluation by cultivation was performed by inoculating the strains to a production medium (containing glucose 100 g, (NH4)2 SO4 55 g, KH2 PO4 1 g, MgSO4.7H2 O 1 g, soybean protein acid hydrolysate "Mamenou" (product of Ajinomoto Co., Ltd., trade name) 50 ml, FeSO4.7H2 O 10 mg, MnSO4.4H2 O 10 mg, nicotinic acid amide 5 mg, and CaCO3 50 g in 1 l of pure water, pH 8.0), and cultivating them with reciprocatory shaking at 31.5° C. for 72 hours. […] The plasmid-holding ratio upon completion of the cultivation was measured by using an index of chloramphenicol resistance as a drug resistance marker of the plasmid.
The lysine productivity was further evaluated by cultivation for the 9 kinds of these strains by using a method similar to that in Example 3.

In data set [4] the test system is AK. Briefly: Thermal stability of AK, treatment at 55° C. for 1.5 hour. It counts as biochemical, Corynebacterium glutamicum. The protocol:
The activity-holding ratio after a treatment at 55° C. for 90 minutes is indicated by %.
Thermal stability was investigated as an index of stability of the enzyme structure constructed by the introduction of mutation. The treatment condition was set at 55° C. for 1.5 hour in which the activity of the wild type AK was about 80%.

[5] abbreviates: E. coli Gif106M1 cell-free extracts.

B1: Pro: mutant aspartokinase 279 Ala→Pro, plasmid p399AKAP (p399AKAPB) (protein, UniProt P26512 1-421, looked up, variant A279P)
Aspartokinase: MALVVQKYGGSSLESAERIRNVAERIVATKKAGNDVVVVCSAMGDTTDELLELAAAVNPVPPAREMDMLLTAGERISNALVAMAIESLGAEAQSFTGSQAGVLTTERHGNARIVDVTPGRVREALDEGKICIVAGFQGVNKETRDVTTLGRGGSDTTAVALAAALNADVCEIYSDVDGVYTADPRIVPNAQKLEKLSFEEMLELAAVGSKILVLRSVEYARAFNVPLRVRSSYSNDPGTLIAGSMEDIPVEEAVLTGVATDKSEAKVTVLGISDKPGEPAKVFRALADAEINIDMVLQNVSSVEDGTTDITFTCPRSDGRRAMEILKKLQVQGNWTNVLYDDQVGKVSLVGAGMKSHPGVTAEFMEALRDVNVNIELISTSEIRISVLIREDDLDAAARALHEQFQLGGEDEAVVYAGTGR
On to B1, for which, in data set [1] (setting [5]), the “concerted inhibition by lysine+threonine” value is listed as “desensitized”, the “degree of activation by threonine” value was “not less than 120%”, the “inhibition by lysine alone as compared with the wild type” value was “mitigated” and the Specific activity was found to be 2.8 mU/mg protein. Further, in data set [1] (fraction of wild type specific activity), the “specific activity relative to that of the wild type” value is listed as “about 1/5”. Moreover, in data set [1], the “5 mM Lys + Thr (degree of desensitization of inhibition, activity-holding ratio)” value was 103.8%; the “5 mM Lys (degree of desensitization of inhibition, activity-holding ratio)” value worked out at 76.9%; the “5 mM Thr (degree of desensitization of inhibition, activity-holding ratio)” value is recorded as 126.9%. Further, in data set [2], the “2 mM Lys + Thr (desensitization degree of inhibition)” value was 85.2%, the “5 mM Lys (desensitization degree of inhibition)” value came to 77.5%, the Specific activity worked out at 125.0 mU/mg protein and the “5 mM Thr (desensitization degree of inhibition)” value turned out to be 123.2%. Moreover, the “degree of desensitization of inhibition, ranking” value in data set [2] (lysine alone, threonine alone and concerted inhibition, plasmids in AJ12036) is on record as “highest degree of desensitization of inhibition”. The Lys--HCl in data set [3] came out at 25.11 g/L.

B2: Asp: mutant aspartokinase 279 Ala→Asp, plasmid p399AKAD (protein, UniProt P26512 1-421, looked up, variant A279D)
Aspartokinase: MALVVQKYGGSSLESAERIRNVAERIVATKKAGNDVVVVCSAMGDTTDELLELAAAVNPVPPAREMDMLLTAGERISNALVAMAIESLGAEAQSFTGSQAGVLTTERHGNARIVDVTPGRVREALDEGKICIVAGFQGVNKETRDVTTLGRGGSDTTAVALAAALNADVCEIYSDVDGVYTADPRIVPNAQKLEKLSFEEMLELAAVGSKILVLRSVEYARAFNVPLRVRSSYSNDPGTLIAGSMEDIPVEEAVLTGVATDKSEAKVTVLGISDKPGEDAKVFRALADAEINIDMVLQNVSSVEDGTTDITFTCPRSDGRRAMEILKKLQVQGNWTNVLYDDQVGKVSLVGAGMKSHPGVTAEFMEALRDVNVNIELISTSEIRISVLIREDDLDAAARALHEQFQLGGEDEAVVYAGTGR
Consider B2, for which, in data set [1] (setting [5]), the “AK activity” value is “inactivated” and the Specific activity was found to be 1.5 mU/mg protein.

B3: Ser: mutant aspartokinase 279 Ala→Ser, plasmid p399AKAS (p399AKASB) (protein, UniProt P26512 1-421, looked up, variant A279S)
Aspartokinase: MALVVQKYGGSSLESAERIRNVAERIVATKKAGNDVVVVCSAMGDTTDELLELAAAVNPVPPAREMDMLLTAGERISNALVAMAIESLGAEAQSFTGSQAGVLTTERHGNARIVDVTPGRVREALDEGKICIVAGFQGVNKETRDVTTLGRGGSDTTAVALAAALNADVCEIYSDVDGVYTADPRIVPNAQKLEKLSFEEMLELAAVGSKILVLRSVEYARAFNVPLRVRSSYSNDPGTLIAGSMEDIPVEEAVLTGVATDKSEAKVTVLGISDKPGESAKVFRALADAEINIDMVLQNVSSVEDGTTDITFTCPRSDGRRAMEILKKLQVQGNWTNVLYDDQVGKVSLVGAGMKSHPGVTAEFMEALRDVNVNIELISTSEIRISVLIREDDLDAAARALHEQFQLGGEDEAVVYAGTGR
Consider B3, for which, in data set [1] (setting [5]), the “concerted inhibition by lysine+threonine” value is “enhanced”, the “inhibition by lysine alone as compared with the wild type” value was “equivalent to that in the wild type” and the Specific activity is on record as 8.2 mU/mg protein. Moreover, in data set [1], the “5 mM Lys + Thr (degree of desensitization of inhibition, activity-holding ratio)” value was 18.4%; the “5 mM Lys (degree of desensitization of inhibition, activity-holding ratio)” value was 52.6%; the “5 mM Thr (degree of desensitization of inhibition, activity-holding ratio)” value was determined as 131.6%. Moreover, in data set [2], the “2 mM Lys + Thr (desensitization degree of inhibition)” value was found to be 37.0%, the “5 mM Lys (desensitization degree of inhibition)” value is listed as 55.0%, the Specific activity is 406.8 mU/mg protein and the “5 mM Thr (desensitization degree of inhibition)” value is 114.4%. In addition, in data set [3], the Lys--HCl was 5.72 g/L.

B4: Thr: mutant aspartokinase 279 Ala→Thr from AJ3463, plasmid p399AK9 (p399AK9B); SEQ ID NO: 4 and 6 (protein)
chain: MEEAVLTGVATDKSEAKVTVLGISDKPGETAKVFRALADAEINIDMVLQNVSSVEDGTTDITFTCPRADGRRAMEILKKLQVQGNWTNVLYDDQVGKVSLVGAGMKSHPGVTAEFMEALRDVNVNIELISTSEIRISVLIREDDLDAAARALHEQFQLGGEDEAVVYAGTGR
Consider B4, for which, in data set [1] (setting [5]), the “inhibition by lysine alone as compared with the wild type” value was “little improvement”, the “inhibition by threonine desensitized” value came to 100% and the Specific activity was 12.9 mU/mg protein. In data set [1], the “5 mM Lys + Thr (degree of desensitization of inhibition, activity-holding ratio)” value is reported as 50.4%; the “5 mM Lys (degree of desensitization of inhibition, activity-holding ratio)” value was 47.0%; the “5 mM Thr (degree of desensitization of inhibition, activity-holding ratio)” value is recorded as 103.5%. Further, the “thermal stability compared with the wild type” value in data set [4] (FIG. 6) was “higher stability than that of the wild type”. In addition, in data set [2], the “2 mM Lys + Thr (desensitization degree of inhibition)” value came out at 78.3%, the “5 mM Lys (desensitization degree of inhibition)” value is 58.7%, the Specific activity came out at 374.4 mU/mg protein and the “5 mM Thr (desensitization degree of inhibition)” value amounted to 109.1%. The Lys--HCl in data set [3] was found to be 24.25 g/L.

B5: Wild type: wild type aspartokinase of Corynebacterium glutamicum ATCC 13869, plasmid p399AKY (p399AKYB); SEQ ID NO: 3 and 5 (protein)
chain: MEEAVLTGVATDKSEAKVTVLGISDKPGEAAKVFRALADAEINIDMVLQNVSSVEDGTTDITFTCPRADGRRAMEILKKLQVQGNWTNVLYDDQVGKVSLVGAGMKSHPGVTAEFMEALRDVNVNIELISTSEIRISVLIREDDLDAAARALHEQFQLGGEDEAVVYAGTGR
B5 registered a Specific activity in data set [1] (setting [5]) of 15.3 mU/mg protein. In data set [1], the “5 mM Lys + Thr (degree of desensitization of inhibition, activity-holding ratio)” value is 9.2%; the “5 mM Lys (degree of desensitization of inhibition, activity-holding ratio)” value is 42.3%; the “5 mM Thr (degree of desensitization of inhibition, activity-holding ratio)” value is reported as 62.3%. In data set [4], the “activity after thermal treatment (activity-holding ratio)” value was “about 80%”. Also, in data set [2], the “2 mM Lys + Thr (desensitization degree of inhibition)” value stood at 6.2%, the “5 mM Lys (desensitization degree of inhibition)” value amounted to 52.7%, the Specific activity worked out at 316.4 mU/mg protein and the “5 mM Thr (desensitization degree of inhibition)” value is 86.8%. The molecule further had a Lys--HCl in data set [3] of 0.00 g/L.
